The text below walks through data of paper PMC3424542.

One data set addresses T1, XtrLin28b ZKD Y133A (Xenopus tropicalis, UniProt B4F6I0 125-175, Y133A).
T1 sequence: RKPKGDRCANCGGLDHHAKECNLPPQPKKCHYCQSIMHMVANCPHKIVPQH
The experiment in a line: ITC.

For a further data set, the target named is T2, XtrLin28b ZKD H155A (Xenopus tropicalis, UniProt B4F6I0 125-175, H155A).
T2 sequence: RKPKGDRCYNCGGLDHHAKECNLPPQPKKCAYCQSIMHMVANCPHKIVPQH
The experiment in a line: ITC. On the technique in general: Isothermal titration calorimetry measures the heat released or taken up as one component is titrated into another.

The next data set addresses T3, XtrLin28b ZKD (Xenopus tropicalis, UniProt B4F6I0 125-175).
T3 sequence: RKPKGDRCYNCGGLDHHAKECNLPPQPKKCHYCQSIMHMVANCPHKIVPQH
Nature of the data set: ITC.

A further data set deals with T4, XtrLin28b CSD (Xenopus tropicalis, UniProt B4F6I0 27-114).
T4 sequence: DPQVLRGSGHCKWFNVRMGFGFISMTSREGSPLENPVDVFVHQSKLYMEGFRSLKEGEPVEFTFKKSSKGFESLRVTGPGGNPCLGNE
The experiment in a line: crystal structure.

With AAGGAGAA (ssRNA) [rZ1], the Kd (usually the equilibrium constant for the complex coming apart) is 2200 ± 700 nM with XtrLin28b ZKD Y133A, 2600 ± 600 nM with XtrLin28b ZKD H155A and 45 ± 4 nM with XtrLin28b ZKD.

As for UUUUUU (ssRNA) [rU6], in the data set with XtrLin28b CSD, the binding result is reported as “binds”.
